Data taken from article PMC3200346, “A Highly Stable Plastidic-Type Ferredoxin-NADP(H) Reductase in the Pathogenic Bacterium Leptospira interrogans” (PLoS ONE, 2011).

Columns and labels:
E. coli FNR [1] = molecular target: T1, E. coli FNR (Escherichia coli, UniProt P28861); experiment: UV-visible spectrum; assay type: binding; conditions: noncovalently bound prosthetic group
T1 construct: gene fpr; ferredoxin-NADP(H) reductase, not the FNR transcription regulator
T1 sequence (P28861 2-248): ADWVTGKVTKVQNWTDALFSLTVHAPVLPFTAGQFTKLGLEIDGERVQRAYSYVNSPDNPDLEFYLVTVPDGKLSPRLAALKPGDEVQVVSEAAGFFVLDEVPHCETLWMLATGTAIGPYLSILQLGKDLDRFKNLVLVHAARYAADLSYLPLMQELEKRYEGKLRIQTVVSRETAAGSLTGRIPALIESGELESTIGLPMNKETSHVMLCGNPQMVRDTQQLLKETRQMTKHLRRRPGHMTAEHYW

LepFNR [2] = molecular target: T2, LepFNR (Leptospira interrogans, UniProt Q8EY89); experiment: UV-visible spectrum; FAD fluorescence (release with urea); assay type: binding; conditions: noncovalently bound prosthetic group, 50 mM Tris-HCl pH 8.0, 25 °C
T2 construct: gene LA_4327; recombinant in E. coli BL21(DE3)pLysS, thioredoxin fusion (pET32JO-LepFNR) cut off by thrombin; monomeric FAD flavoprotein

[3] = molecular target: Leptospira interrogans ferredoxin-NADP(H) reductase (L. interrogans)
[4] = molecular target: Leptospira interrogans ferredoxin-NADP(H) reductase (L. interrogans); remark: listed apart in the source
Pea leaf FNR = molecular target: T3, Pea leaf FNR (Lathyrus oleraceus, UniProt P10933); experiment: difference absorption spectroscopy; assay type: binding; conditions: read-out: K d ^NADP+ /
T3 construct: gene PETH; preparation of the assayed enzyme not described; monomeric FAD flavoprotein
T3 sequence (P10933 53-360): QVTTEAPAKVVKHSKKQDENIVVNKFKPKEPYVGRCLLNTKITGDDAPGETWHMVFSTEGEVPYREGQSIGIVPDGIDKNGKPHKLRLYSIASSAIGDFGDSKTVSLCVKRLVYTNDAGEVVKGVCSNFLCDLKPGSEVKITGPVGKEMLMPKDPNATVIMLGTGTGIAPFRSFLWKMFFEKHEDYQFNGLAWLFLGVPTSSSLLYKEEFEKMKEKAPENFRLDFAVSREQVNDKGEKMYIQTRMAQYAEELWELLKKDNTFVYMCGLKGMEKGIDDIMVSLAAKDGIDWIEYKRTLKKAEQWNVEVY
Source text: difference absorption spectroscopy on Pea leaf FNR

LepFNR [5] = molecular target: T2, LepFNR; experiment: difference absorption spectroscopy titration; assay type: binding
Source text: difference absorption spectroscopy titration on LepFNR

E. coli FNR [6] = molecular target: T1, E. coli FNR; experiment: difference absorption spectroscopy; assay type: binding; conditions: read-out: K d ^NADP+ /
Source text: difference absorption spectroscopy on E. coli FNR

[7] = tested on: NC(=O)C1=CN([C@@H]2O[C@H](COP(=O)(O)OP(=O)(O)OC[C@H]3O[C@@H](n4cnc5c(N)ncnc54)[C@H](OP(=O)(O)O)[C@@H]3O)[C@@H](O)[C@H]2O)C=CC1; experiment: purified protein; conditions: 1 mM potassium ferricyanide, NADPH regenerating system, 50 mM Tris-HCl pH 8.0, 30 °C
purified protein [8] = substrate: NC(=O)C1=CN([C@@H]2O[C@H](COP(=O)(O)OP(=O)(O)OC[C@H]3O[C@@H](n4cnc5c(N)ncnc54)[C@H](OP(=O)(O)O)[C@@H]3O)[C@@H](O)[C@H]2O)C=CC1; experiment: purified protein; assay type: biochemical, Lathyrus oleraceus; conditions: 1 mM potassium ferricyanide, NADPH regenerating system, 50 mM Tris-HCl pH 8.0, 30 °C
purified protein [9] = substrate: NC(=O)C1=CN([C@@H]2O[C@H](COP(=O)(O)OP(=O)(O)OC[C@H]3O[C@@H](n4cnc5c(N)ncnc54)[C@H](OP(=O)(O)O)[C@@H]3O)[C@@H](O)[C@H]2O)C=CC1; experiment: purified protein; assay type: biochemical, Escherichia coli; conditions: 1 mM potassium ferricyanide, NADPH regenerating system, 50 mM Tris-HCl pH 8.0, 30 °C

T2 sequence (Q8EY89 entry or part of it): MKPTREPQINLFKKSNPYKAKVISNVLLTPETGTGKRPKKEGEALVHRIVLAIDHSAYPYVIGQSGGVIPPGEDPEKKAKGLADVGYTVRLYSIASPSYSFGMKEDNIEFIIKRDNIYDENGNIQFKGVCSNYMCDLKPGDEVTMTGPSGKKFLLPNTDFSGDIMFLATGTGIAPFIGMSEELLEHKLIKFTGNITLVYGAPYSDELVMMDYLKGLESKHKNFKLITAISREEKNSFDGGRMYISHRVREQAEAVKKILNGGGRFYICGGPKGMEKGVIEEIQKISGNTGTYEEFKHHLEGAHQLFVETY

Molecule: Cc1cc2nc3c(=O)[nH]c(=O)nc-3n(C[C@H](O)[C@H](O)[C@H](O)COP(=O)(O)OP(=O)(O)OC[C@H]3O[C@@H](n4cnc5c(N)ncnc54)[C@H](O)[C@@H]3O)c2cc1C [FAD]
- UV-visible spectrum (E. coli FNR [1]): spectra of the pea leaf FNR, E. coli FNR and LepFNR, all essentially in oxidized states
- UV-visible spectrum; FAD fluorescence (release with urea) (LepFNR [2]): the prosthetic group remains bound to the enzyme

Molecule: Pisum sativum leaf ferredoxin (from UniProt P09911 53-149) (natural protein)
- NADPH-cytochrome c reductase activity of LepFNR with P. sativum leaf ferredoxin; the reaction was linear with pea leaf ferredoxin up to 70 µM, no kinetic parameters determined [3]: 2.5 s⁻¹

Molecule: Leptospira interrogans LB107 [4Fe-4S] ferredoxin (natural protein)
- NADPH-cytochrome c reductase activity of LepFNR with LB107 ferredoxin under anaerobic conditions at different pH values; maximal specific activity at pH 6.5, lower at higher pH [4]: 6.13 µmol/min/mg

Molecule: NC(=O)c1ccc[n+]([C@@H]2O[C@H](COP(=O)(O)OP(=O)(O)OC[C@H]3O[C@@H](n4cnc5c(N)ncnc54)[C@H](OP(=O)(O)O)[C@@H]3O)[C@@H](O)[C@H]2O)c1 [NADP^+]
- Kd (Pea leaf FNR): 11.3 ± 2.1 µM
- Kd (LepFNR [5]): 13.2 ± 3.1 µM
- Kd (E. coli FNR [6]): 7.6 ± 2.2 µM

Molecule: LepFNR (Leptospira interrogans serovar Lai str. 56601)
- Km [7]: 14.5 ± 1.7 µM
- kcat [7]: 258 ± 13.7 s⁻¹
- kcat/Km [7]: 1.78e+07 M⁻¹ s⁻¹

B1: Pea leaf FNR (Lathyrus oleraceus) (protein)
chain: QVTTEAPAKVVKHSKKQDENIVVNKFKPKEPYVGRCLLNTKITGDDAPGETWHMVFSTEGEVPYREGQSIGIVPDGIDKNGKPHKLRLYSIASSAIGDFGDSKTVSLCVKRLVYTNDAGEVVKGVCSNFLCDLKPGSEVKITGPVGKEMLMPKDPNATVIMLGTGTGIAPFRSFLWKMFFEKHEDYQFNGLAWLFLGVPTSSSLLYKEEFEKMKEKAPENFRLDFAVSREQVNDKGEKMYIQTRMAQYAEELWELLKKDNTFVYMCGLKGMEKGIDDIMVSLAAKDGIDWIEYKRTLKKAEQWNVEVY
notes: preparation of the assayed enzyme not described; monomeric FAD flavoprotein
- Km (purified protein [8]): 15.0 ± 1.6 µM
- kcat (purified protein [8]): 325 ± 16.5 s⁻¹
- kcat/Km (purified protein [8]): 2.17e+07 M⁻¹ s⁻¹

B2: E. coli FNR (Escherichia coli K-12) (protein)
chain: ADWVTGKVTKVQNWTDALFSLTVHAPVLPFTAGQFTKLGLEIDGERVQRAYSYVNSPDNPDLEFYLVTVPDGKLSPRLAALKPGDEVQVVSEAAGFFVLDEVPHCETLWMLATGTAIGPYLSILQLGKDLDRFKNLVLVHAARYAADLSYLPLMQELEKRYEGKLRIQTVVSRETAAGSLTGRIPALIESGELESTIGLPMNKETSHVMLCGNPQMVRDTQQLLKETRQMTKHLRRRPGHMTAEHYW
notes: ferredoxin-NADP(H) reductase, not the FNR transcription regulator
- Km (purified protein [9]): 8.3 ± 0.5 µM
- kcat (purified protein [9]): 38.2 ± 2.3 s⁻¹
- kcat/Km (purified protein [9]): 5e+06 M⁻¹ s⁻¹
